Test results from PMC11528121, “Structural basis of the bacterial flagellar motor rotational switching” (Cell Research, 2024).

B1: FliE (natural protein, UniProt P26462 1-104, looked up)
chain: MAAIQGIEGVISQLQATAMAARGQDTHSQSTVSFAGQLHAALDRISDRQAAARVQAEKFTLGEPGIALNDVMADMQKASVSMQMGIQVRNKLVAAYQEVMSMQV
notes: FliE, rod protein of the flagellar basal body, Salmonella Typhimurium LT2; Subunit of the purified complex m8; 6 copies in the rod; also called FliE^6
B2: FlgC (natural protein)
chain: MALLNIFDIAGSALAAQSKRLNVAASNLANADSVTGPDGQPYRAKQVVFQVDAAPGQATGGVKVASVIESQAPEKLVYEPGNPLADANGYVKMPNVDVVGEMVNTMSASRSYQANIEVLNTVKSMMLKTLTLGQ
notes: FlgC, proximal rod protein of the flagellar basal body, Salmonella Typhimurium LT2; Subunit of the purified complex m8; 6 copies in the rod; also called FlgC^1; FlgC^6
B3: FliF (natural protein, UniProt P15928 1-560, looked up)
chain: MSATASTATQPKPLEWLNRLRANPRIPLIVAGSAAVAIVVAMVLWAKTPDYRTLFSNLSDQDGGAIVAQLTQMNIPYRFANGSGAIEVPADKVHELRLRLAQQGLPKGGAVGFELLDQEKFGISQFSEQVNYQRALEGELARTIETLGPVKSARVHLAMPKPSLFVREQKSPSASVTVTLEPGRALDEGQISAVVHLVSSAVAGLPPGNVTLVDQSGHLLTQSNTSGRDLNDAQLKFANDVESRIQRRIEAILSPIVGNGNVHAQVTAQLDFANKEQTEEHYSPNGDASKATLRSRQLNISEQVGAGYPGGVPGALSNQPAPPNEAPIATPPTNQQNAQNTPQTSTSTNSNSAGPRSTQRNETSNYEVDRTIRHTKMNVGDIERLSVAVVVNYKTLADGKPLPLTADQMKQIEDLTREAMGFSDKRGDTLNVVNSPFSAVDNTGGELPFWQQQSFIDQLLAAGRWLLVLVVAWILWRKAVRPQLTRRVEEAKAAQEQAQVRQETEEAVEVRLSKDEQLQQRRANQRLGAEVMSQRIREMSDNDPRVVALVIRQWMSNDHE
notes: FliF, MS ring protein, Salmonella Typhimurium LT2; RBM1, RBM2, RBM3, β-collar, C-terminal region FliFC; Subunit of the purified complex m8; 34 copies in the MS ring; also called FliFC; MS ring protein
B4: FliG (natural protein, UniProt P0A1J9 1-331, looked up)
chain: MSNLSGTDKSVILLMTIGEDRAAEVFKHLSTREVQALSTAMANVRQISNKQLTDVLSEFEQEAEQFAALNINANEYLRSVLVKALGEERASSLLEDILETRDTTSGIETLNFMEPQSAADLIRDEHPQIIATILVHLKRSQAADILALFDERLRHDVMLRIATFGGVQPAALAELTEVLNGLLDGQNLKRSKMGGVRTAAEIINLMKTQQEEAVITAVREFDGELAQKIIDEMFLFENLVDVDDRSIQRLLQEVDSESLLIALKGAEPPLREKFLRNMSQRAADILRDDLANRGPVRLSQVENEQKAILLIVRRLAETGEMVIGSGEDTYV
notes: FliG, flagellar motor switch protein of the C ring, Salmonella Typhimurium LT2; domains FliGN, FliGM, FliGCN, FliGCC; Subunit of the purified complex m8; 34 copies in the C ring; also called FliGN; FliGM
B5: FliN (natural protein, UniProt P26419 1-137, looked up)
chain: MSDMNNPSDENTGALDDLWADALNEQKATTTKSAADAVFQQLGGGDVSGAMQDIDLIMDIPVKLTVELGRTRMTIKELLRLTQGSVVALDGLAGEPLDILINGYLIAQGEVVVVADKYGVRITDIITPSERMRRLSR
notes: FliN, flagellar motor switch protein of the C ring, Salmonella Typhimurium LT2; FliN1, FliN2 and FliN3 are the three copies in one protomer; Subunit of the purified complex m8; 102 copies in the C ring; also called FliN1; FliN2
B6: CheY D13K/Y106W (constitutively active double mutant) (natural protein)
chain: MADKELKFLVVDKFSTMRRIVRNLLKELGFNNVEEAEDGVDALNKLQAGGFGFIISDWNMPNMDGLELLKTIRADSAMSALPVLMVTAEAKKENIIAAAQAGASGWVVKPFTAATLEEKLNKIFEKLGM
notes: CheY, chemotaxis signal protein, gene amplified from genomic DNA of Salmonella enterica serovar Typhimurium LT2; double mutant D13K/Y106W; Tag linked through an HRV3C protease site; residues of the site may remain at the C-terminus after cleavage; Vector pET-14b; source: E. coli BL21 (DE3), purified (Streptactin column, PreScission protease digestion, Superdex 75); not shown: Twin-Strep-tag II, …
B7: FliM (natural protein, UniProt P26418 1-334, looked up)
chain: MGDSILSQAEIDALLNGDSDTKDEPTPGIASDSDIRPYDPNTQRRVVRERLQALEIINERFARQFRMGLFNLLRRSPDITVGAIRIQPYHEFARNLPVPTNLNLIHLKPLRGTGLVVFSPSLVFIAVDNLFGGDGRFPTKVEGREFTHTEQRVINRMLKLALEGYSDAWKAINPLEVEYVRSEMQVKFTNITTSPNDIVVNTPFHVEIGNLTGEFNICLPFSMIEPLRELLVNPPLENSRHEDQNWRDNLVRQVQHSELELVANFADIPLRLSQILKLKPGDVLPIEKPDRIIAHVDGVPVLTSQYGTVNGQYALRVEHLINPILNSLNEEQPK
notes: FliM, flagellar motor switch protein of the C ring, Salmonella Typhimurium LT2; domains FliMN, FliMM, FliMC; Subunit of the purified complex m8; 34 copies in the C ring; also called FliMN; FliMM

Assays:
FliF [1] = molecular target: B3; experiment: cryo-EM structure; basal body–hook complex in the default CCW state purified from S. Typhimurium ΔfliCD in TET buffer (10 mM Tris-HCl pH 8.0, 5 mM EDTA, 0.1% Triton X-100); C ring C34 map 5.9 Å, four protomers 4.0 Å, whole complex 7.4 Å, local maps 3.0–4.3 Å; conditions: both partners purified
[2] = molecular target: the molecule itself; experiment: as above
FliM [3] = molecular target: B7; experiment: as above; conditions: both partners purified
FliF [4] = molecular target: B3; experiment: cryo-EM structure; 5 μL purified CCW basal body–hook complex mixed with 1 μL CheY** (2 mg/mL), 15 min at room temperature, 1.5 h on ice; CW state; C ring C34 map 5.6 Å, four protomers 4.4 Å, whole complex 4.3 Å, local maps 2.8–3.8 Å; conditions: both partners purified
[5] = molecular target: T1, C ring-containing flagellar basal body–hook complex in the default CCW state (Salmonella enterica serovar Typhimurium …, UniProt P0A1J9 1-331; P26418 1-334; P26419 1-137; P15928 1-560; P54700 22-245; P54702 …); experiment: as above; conditions: both partners purified
T1 construct: FliG, C ring, Salmonella Typhimurium LT2; FliM, C ring, Salmonella Typhimurium LT2; FliN, C ring, Salmonella Typhimurium LT2; FliF, MS ring, Salmonella Typhimurium LT2; FliP, export apparatus, Salmonella Typhimurium LT2; FliR, export apparatus, Salmonella Typhimurium LT2; FliQ, export apparatus, Salmonella Typhimurium LT2; FliE, rod, Salmonella Typhimurium LT2; FlgB, rod, Salmonella Typhimurium …

FliM [6] = molecular target: B7; experiment: as above; conditions: both partners purified

B1
binding result (FliF [1]): binds

B2
binding result (FliF [1]): binds

B3
stoichiometry N [2]: 34

B4
stoichiometry N (FliM [3]): 1
stoichiometry N [2]: 34
binding result (FliF [4]): binds

B5
stoichiometry N (FliM [3]): 3
binding result [2]: binds

B6
stoichiometry N [5]: 34
binding result (FliM [6]): binds

B7
stoichiometry N [2]: 34
